# In PMC2885444:
# Experiments:
# CHD4 PHD2 finger C460W = CHD4 PHD2 finger C460W (UniProt Q14839); test: NMR titration
# CHD4 PHD2 finger E447A = CHD4 PHD2 finger E447A (UniProt Q14839); test: NMR titration
# [1] = target: CHD4 PHD2 finger, wild type (UniProt Q14839); test: other fluorescence titration
# [2] = target: CHD4 PHD2 finger, wild type (UniProt Q14839); test: other fluorescence titration + NMR titration
Substance,Kd [1] [µM],Kd [2] [µM],also measured
unmodified H3 peptide (12-mer histone tail peptide),,,Kd (CHD4 PHD2 finger C460W): 3700 µM; Kd (CHD4 PHD2 finger E447A): 900 µM
H3K9ac peptide (20-mer),0.6,,
H3K9me3 peptide (12-mer histone tail peptide),0.9,,
H3K4me2 peptide (affinity measurements),,1000,
histone H3 peptide in which the primary amino group of Ala1 was acetylated,,400,
H3K4me1 peptide (affinity measurements),,300,
